From article PMC3885427, “NPPB and ACAN, Two Novel SHOX2 Transcription Targets Implicated in Skeletal Development” (PLoS ONE, 2014)

Experiments:
Assay in all cases: two-hybrid; S. cerevisiae Y187 cotransformed with pGBT9 (GAL4 binding domain) and pACT2 (GAL4 activation domain) fusions; β-galactosidase liquid assay with CRPG as substrate; fragments and mutants given as percent of full-length or wild-type protein; empty vectors as negative controls
Details in all cases: partners not purified
[1] = molecular target: T1, SHOX(1–211), yeast two-hybrid fusion (human, UniProt O15266 1-211)
T1 construct: SHOXa, human, residues 1-211; source: yeast two-hybrid fusion (S. cerevisiae Y187)
T1 sequence (O15266 1-211): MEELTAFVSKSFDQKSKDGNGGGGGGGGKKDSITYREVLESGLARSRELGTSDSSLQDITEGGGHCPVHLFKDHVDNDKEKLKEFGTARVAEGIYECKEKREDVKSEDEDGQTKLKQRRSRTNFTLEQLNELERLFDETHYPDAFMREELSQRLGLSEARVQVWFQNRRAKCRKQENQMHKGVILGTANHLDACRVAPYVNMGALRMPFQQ

[2] = molecular target: T2, SHOX(117–274), yeast two-hybrid fusion (human, UniProt O15266 117-274)
T2 construct: SHOXa, human, residues 117-274; source: yeast two-hybrid fusion (S. cerevisiae Y187)
T2 sequence (O15266 117-274): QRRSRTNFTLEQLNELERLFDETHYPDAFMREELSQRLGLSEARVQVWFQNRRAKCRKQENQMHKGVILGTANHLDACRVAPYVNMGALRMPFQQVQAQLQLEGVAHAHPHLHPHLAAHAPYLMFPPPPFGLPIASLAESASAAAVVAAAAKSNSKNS

[3] = molecular target: T3, SHOX(117–292), yeast two-hybrid fusion (human, UniProt O15266 117-292)
T3 construct: SHOXa, human, residues 117-292; source: yeast two-hybrid fusion (S. cerevisiae Y187)

[4] = molecular target: T4, SHOX(178–292), yeast two-hybrid fusion (human, UniProt O15266 178-292)
T4 construct: SHOXa, human, residues 178-292; source: yeast two-hybrid fusion (S. cerevisiae Y187)
T4 sequence (looked up): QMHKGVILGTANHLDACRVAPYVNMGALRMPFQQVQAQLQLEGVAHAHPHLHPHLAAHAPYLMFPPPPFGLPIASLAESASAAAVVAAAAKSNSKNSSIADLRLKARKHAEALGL

Measured: β-galactosidase units as percent of full-length SHOX

B1: SHOX2a (called SHOX2 in the paper), full-length, yeast two-hybrid fusion (natural protein)
chain: not shown
notes: SHOX2a (short stature homeobox 2, isoform a), human; full-length cDNA NM_006884.3 made from IMAGE SHOX2 clone 4122010 by removing a 70 bp region; also called wild-type SHOX2; full-length SHOX2; source: yeast two-hybrid fusion (S. cerevisiae Y187)
< 50 % of the wildtype: [1] | [2] | [3] | [4]
